Experimental data reported in paper PMC9132891, “Antigenic structure of the human coronavirus OC43 spike reveals exposed and occluded neutralizing epitopes” (Nature Communications, 2022).

Assays:
Assay in all cases: ELISA; S1 antigens coated; H2L2 mAbs at one concentration, 0.4 μg/ml; OD450nm
Details in all cases: both partners purified
[1] = target: T1, S1 of OC43 isolate BE/2004 (Human coronavirus OC43, BE/2004, UniProt Q4VID5, strain)
T1 construct: source: HEK-293T, transient, purified from culture supernatant (Protein A sepharose)

[2] = target: T2, S1 of OC43 isolate NL/2019 (Human coronavirus OC43, NL/2019, strain)
T2 construct: source: HEK-293T, transient, purified from culture supernatant (Protein A sepharose)
T2 chain: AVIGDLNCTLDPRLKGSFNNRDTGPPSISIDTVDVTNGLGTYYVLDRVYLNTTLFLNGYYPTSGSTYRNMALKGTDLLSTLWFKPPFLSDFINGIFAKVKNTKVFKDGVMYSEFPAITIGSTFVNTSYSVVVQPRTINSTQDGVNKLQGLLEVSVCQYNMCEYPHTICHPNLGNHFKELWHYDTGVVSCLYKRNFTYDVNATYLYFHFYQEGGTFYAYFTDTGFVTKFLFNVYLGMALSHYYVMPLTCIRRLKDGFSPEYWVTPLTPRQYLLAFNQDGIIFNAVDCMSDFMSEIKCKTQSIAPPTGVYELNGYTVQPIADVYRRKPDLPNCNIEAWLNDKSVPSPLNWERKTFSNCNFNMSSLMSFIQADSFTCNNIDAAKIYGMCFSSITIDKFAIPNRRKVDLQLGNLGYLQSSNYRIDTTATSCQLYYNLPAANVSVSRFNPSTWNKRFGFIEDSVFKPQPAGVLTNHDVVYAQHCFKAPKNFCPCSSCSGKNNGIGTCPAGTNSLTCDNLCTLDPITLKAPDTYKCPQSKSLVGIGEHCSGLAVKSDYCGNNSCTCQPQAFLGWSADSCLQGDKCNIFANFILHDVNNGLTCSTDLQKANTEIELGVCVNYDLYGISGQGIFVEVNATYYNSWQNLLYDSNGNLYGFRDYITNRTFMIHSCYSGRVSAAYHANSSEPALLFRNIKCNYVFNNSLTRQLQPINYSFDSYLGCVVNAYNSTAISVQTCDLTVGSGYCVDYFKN

[3] = target: T3, S1 of OC43 isolate USA/1990(A-II) (Human coronavirus OC43, USA/1990(A-II) …, strain)
T3 construct: source: HEK-293T, transient, purified from culture supernatant (Protein A sepharose)
T3 chain: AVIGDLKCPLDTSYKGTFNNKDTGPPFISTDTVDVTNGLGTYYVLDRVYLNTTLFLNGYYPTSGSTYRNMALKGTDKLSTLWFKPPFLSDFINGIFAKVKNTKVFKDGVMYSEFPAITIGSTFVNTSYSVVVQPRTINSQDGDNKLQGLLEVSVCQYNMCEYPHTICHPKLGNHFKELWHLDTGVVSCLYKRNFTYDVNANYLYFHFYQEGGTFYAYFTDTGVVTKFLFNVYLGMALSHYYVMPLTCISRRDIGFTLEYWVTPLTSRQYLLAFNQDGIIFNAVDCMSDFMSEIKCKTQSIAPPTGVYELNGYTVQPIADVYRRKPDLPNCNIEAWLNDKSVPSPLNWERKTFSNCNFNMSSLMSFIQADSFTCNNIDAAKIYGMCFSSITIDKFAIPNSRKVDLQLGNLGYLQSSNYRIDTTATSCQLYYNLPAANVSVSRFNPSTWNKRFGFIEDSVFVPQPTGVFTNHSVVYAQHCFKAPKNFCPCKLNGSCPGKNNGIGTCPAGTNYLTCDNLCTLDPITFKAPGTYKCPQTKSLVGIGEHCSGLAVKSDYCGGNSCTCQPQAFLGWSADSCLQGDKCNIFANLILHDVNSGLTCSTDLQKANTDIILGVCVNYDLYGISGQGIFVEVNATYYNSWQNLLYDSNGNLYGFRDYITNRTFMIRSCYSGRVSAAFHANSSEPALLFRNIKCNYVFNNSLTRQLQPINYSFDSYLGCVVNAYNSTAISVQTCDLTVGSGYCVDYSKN

[4] = target: T4, S1 of OC43 isolate USA/1990(B) (Human coronavirus OC43, USA/1990(B) …, strain)
T4 construct: source: HEK-293T, transient, purified from culture supernatant (Protein A sepharose)
T4 chain: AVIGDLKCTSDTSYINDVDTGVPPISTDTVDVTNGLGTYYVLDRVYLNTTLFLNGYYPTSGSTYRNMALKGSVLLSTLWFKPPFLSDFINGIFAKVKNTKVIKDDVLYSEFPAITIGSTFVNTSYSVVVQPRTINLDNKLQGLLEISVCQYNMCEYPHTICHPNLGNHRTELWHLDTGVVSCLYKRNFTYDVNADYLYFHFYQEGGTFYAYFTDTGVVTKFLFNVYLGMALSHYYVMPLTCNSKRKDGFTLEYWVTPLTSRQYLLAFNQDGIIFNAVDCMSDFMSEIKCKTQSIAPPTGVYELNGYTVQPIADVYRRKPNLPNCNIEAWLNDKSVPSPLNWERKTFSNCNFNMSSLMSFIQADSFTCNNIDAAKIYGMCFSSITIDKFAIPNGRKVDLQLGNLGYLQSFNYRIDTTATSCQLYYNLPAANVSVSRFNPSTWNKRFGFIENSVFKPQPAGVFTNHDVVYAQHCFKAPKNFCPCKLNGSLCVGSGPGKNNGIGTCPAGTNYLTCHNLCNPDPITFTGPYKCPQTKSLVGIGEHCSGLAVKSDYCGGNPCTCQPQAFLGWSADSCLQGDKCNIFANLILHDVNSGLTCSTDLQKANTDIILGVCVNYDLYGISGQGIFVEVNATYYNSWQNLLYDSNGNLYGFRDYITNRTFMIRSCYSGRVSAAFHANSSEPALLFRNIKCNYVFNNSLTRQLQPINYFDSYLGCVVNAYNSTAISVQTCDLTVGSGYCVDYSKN

[5] = target: T5, S1 of OC43 isolate NL/2004 (Human coronavirus OC43, NL/2004, strain)
T5 construct: source: HEK-293T, transient, purified from culture supernatant (Protein A sepharose)
T5 chain: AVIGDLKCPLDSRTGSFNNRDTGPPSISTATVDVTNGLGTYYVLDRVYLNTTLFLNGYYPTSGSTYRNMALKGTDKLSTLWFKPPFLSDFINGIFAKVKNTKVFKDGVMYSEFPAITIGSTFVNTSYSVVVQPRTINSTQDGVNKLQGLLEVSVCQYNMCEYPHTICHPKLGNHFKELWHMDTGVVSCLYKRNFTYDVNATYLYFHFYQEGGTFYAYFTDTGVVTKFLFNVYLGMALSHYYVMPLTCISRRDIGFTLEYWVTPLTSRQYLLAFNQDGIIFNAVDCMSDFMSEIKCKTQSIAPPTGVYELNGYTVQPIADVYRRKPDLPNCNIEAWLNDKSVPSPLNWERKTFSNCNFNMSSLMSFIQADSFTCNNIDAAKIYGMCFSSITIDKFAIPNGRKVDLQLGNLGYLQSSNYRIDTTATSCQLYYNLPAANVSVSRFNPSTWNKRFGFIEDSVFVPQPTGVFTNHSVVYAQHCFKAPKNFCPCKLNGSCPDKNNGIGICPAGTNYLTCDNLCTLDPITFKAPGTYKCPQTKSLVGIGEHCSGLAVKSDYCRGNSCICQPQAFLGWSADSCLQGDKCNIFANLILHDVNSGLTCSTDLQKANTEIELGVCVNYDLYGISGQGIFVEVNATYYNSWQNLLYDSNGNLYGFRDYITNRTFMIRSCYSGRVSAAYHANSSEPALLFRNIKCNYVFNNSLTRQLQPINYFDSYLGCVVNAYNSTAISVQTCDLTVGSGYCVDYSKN

[6] = target: T6, S1 of bovine coronavirus (BCoV), strain Mebus (Bovine coronavirus (strain Mebus) …, UniProt P15777)
T6 construct: also called BCoV S1; source: HEK-293T, purified (Protein A sepharose)

[7] = target: T7, S1 of equine coronavirus (ECoV), strain NC99 (Equine coronavirus, strain NC99, UniProt A8R4D0, strain)
T7 construct: also called ECoV S1; source: HEK-293T, purified (Protein A sepharose)

Measured: binding result

T6 sequence (P15777 14-763): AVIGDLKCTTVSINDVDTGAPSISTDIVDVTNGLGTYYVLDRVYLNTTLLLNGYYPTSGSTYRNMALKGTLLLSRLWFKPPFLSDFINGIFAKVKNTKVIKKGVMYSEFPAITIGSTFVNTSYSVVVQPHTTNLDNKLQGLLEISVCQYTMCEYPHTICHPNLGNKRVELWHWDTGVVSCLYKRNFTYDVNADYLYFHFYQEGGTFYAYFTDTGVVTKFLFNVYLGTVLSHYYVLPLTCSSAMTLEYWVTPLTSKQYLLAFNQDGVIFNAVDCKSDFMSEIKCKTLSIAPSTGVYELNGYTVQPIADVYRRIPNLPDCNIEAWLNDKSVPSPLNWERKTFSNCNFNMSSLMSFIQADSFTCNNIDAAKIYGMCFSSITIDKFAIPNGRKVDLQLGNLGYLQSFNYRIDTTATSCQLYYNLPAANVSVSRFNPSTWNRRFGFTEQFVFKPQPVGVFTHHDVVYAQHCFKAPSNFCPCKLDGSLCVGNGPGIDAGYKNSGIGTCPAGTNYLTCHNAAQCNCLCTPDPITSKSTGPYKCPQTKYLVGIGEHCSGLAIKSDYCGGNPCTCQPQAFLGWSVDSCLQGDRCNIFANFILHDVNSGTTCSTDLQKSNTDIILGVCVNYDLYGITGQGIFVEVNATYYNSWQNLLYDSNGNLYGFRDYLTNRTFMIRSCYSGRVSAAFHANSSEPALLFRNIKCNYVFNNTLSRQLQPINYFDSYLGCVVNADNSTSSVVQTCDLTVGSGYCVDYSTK

B1: 56E10 H2L2 monoclonal antibody (antibody, V domains shown)
VH: QVQLQESGPGLVKPSETLSLTCTVSGGSISGYYWSWIRQPPGKGLEWIGYIFYNGNTNYNPSLKSRVTTSLDTSKNQFSLKLISVTGADTAVYYCVRTSLYYFDYWGQGTLVTVSS
VL: DIQMTQSPSSLSASVGDRVTITCQASQDISNFLNWYQQKPGKAPKLLIYDTSSLETGVPSRFSGSGSETDFTFTISSLQPEDIATYYCQQYDNLPLTFGGGTKVEIK
notes: also called 56E10 (H2L2 format)
not listed: [6] | [7]
binds: all other assays above

B2: 45B9 H2L2 monoclonal antibody (antibody, V domains shown)
VH: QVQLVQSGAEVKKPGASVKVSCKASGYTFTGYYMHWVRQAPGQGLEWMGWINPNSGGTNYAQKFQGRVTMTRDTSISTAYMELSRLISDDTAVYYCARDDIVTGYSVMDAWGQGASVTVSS
VL: DIQMTQSPSSLSASVGDRVTITCRASQSISNYLNWYQQKPGKAPTLLIYAASSLQSGVPSRFSGSGSGTDFTLTISSLQPEDFATYYCQPSYSSPYTFGQGTKLEIK
notes: also called 45B9 (H2L2 format)
binds: all assays above

B3: 65A11 H2L2 monoclonal antibody (antibody, V domains shown)
VH: QVQMVESGGGVVQPGRSLRLSCAASGFSFSSYGMHWVRQAPGKGLEWVAVIWSDVNYKFYADSVKGRFTISRDNSKNTLSLQMNSLRAEDTAVYYCARDSGLRYFDWDYRGYFDLWGRGTLVTVSS
VL: not shown
notes: also called 65A11 (H2L2 format)
binds: [6]
